Assay results: patent US20090110680A1, “Combination of an anti ED-B fibronectin domain antibody and gemcitabine” (priority 2006, published 2009)

Key:
[1] = test system: Capan-1, human pancreas adenocarcinoma xenografts; assay: Radiotherapy / combination therapy study in mice bearing human pancreatic tumour xenografts; type: in vivo; conditions: for survival versus untreated control animals: control (36 days)
Procedure: ED-B-fibronectin domain expression in mouse pancreatic tumour models as well in human pancreatic cancer tissue, pancreatitis and normal pancreas was investigated by immunohistochemical analysis. SPECT (=single photon emission computed tomography) imaging was performed in an orthotopic pancreas cancer mouse model (DAN-G human pancreas carcinoma, DMSZ No. ACC249) with the ^99mTc labelled ED-B-fibronectin domain targeting scFv antibody fragment AP39, described in WO 03/055917. In addition MRI imaging was performed. In radiotherapy studies, mice bearing human pancreatic tumour xenografts (Capan-1, human pancreas adenocarcinoma, ATTC-No. HTB-79) were treated with a single dose of either 37 MBq or 74 MBq of ^131I-labelled ED-B-fibronectin domain targeting L19-SIP (=fusion protein). For combination therapy Capan-1 tumour bearing mice received two cycles of gemcitabine (1 g/m^2/week for three weeks with a one-week break), followed by a single dose of 37 MBq ^131I-L19-SIP 24 h after the first injection of gemcitabine. In a first experiment Capan-1 tumour bearing mice received either a single dose of 37 MBq of ^131I labelled ED-B-fibronectin domain targeting L19-SIP, or two cycles of gemcitabine (1 g/m^2/week for three weeks with a one-week break) as stand alone therapies. For combination therapy mice received two cycles of gemcitabine together with a single dose of 37 MBq ^131I-L19-SIP 24 h after the first injection of gemcitabine. In a second experiment Capan-1 tumour bearing mice were treated with a single dose of either 37 MBq or 74 MBq of ^131I labelled ED-B-fibronectin domain targeting L19-SIP (=fusion protein). For combination therapy Capan-1 tumour bearing mice received two cycles of gemcitabine (1 g/m^2/week for three weeks with a one-week break), together with a single dose of 37 MBq 1311-L19-SIP 24 h after the first injection of gemcitabine.

[2] = molecular target: T1, ED-B domain of fibronectin (Homo sapiens, UniProt P02751); conditions: cited from earlier work
T1 construct: The ED-B, a small domain of 91 amino acids
T1 sequence (P02751 1271-1359 limits assumed): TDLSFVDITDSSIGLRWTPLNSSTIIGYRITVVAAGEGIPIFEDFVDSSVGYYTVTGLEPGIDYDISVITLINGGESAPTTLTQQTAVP

With Nc1ccn([C@@H]2O[C@H](CO)[C@@H](O)C2(F)F)c(=O)n1 [gemcitabine, 2′-deoxy-2′,2′-difluorocytidine] the “survival versus untreated control animals” value ([1]; gemcitabine alone, two cycles (1 g/m^2/week for three weeks, one-week break), Capan-1 tumour bearing mice) was “did not differ from untreated control animals”.

In the case of “scFv(L19): human single chain Fv antibody fragment specific for the ED-B domain of fibronectin”, the “binding affinity for ED-B” value [2] is listed as “picomolar”.

B1: ^131I-L19-SIP (conjugate, chains of the INN, looked up)
VH: EVQLLESGGGLVQPGGSLRLSCAASGFTFSSFSMSWVRQAPGKGLEWVSSISGSSGTTYYADSVKGRFTISRDNSKNTLYLQMNSLRAEDTAVYYCAKPFPYFDYWGQGTLVTVSS
VL: EIVLTQSPGTLSLSPGERATLSCRASQSVSSSFLAWYQQKPGQAPRLLIYYASSRATGIPDRFSGSGSGTDFTLTISRLEPEDFAVYYCQQTGRIPPTFGQGTKVEIK
modifications: small immunoprotein iodine-131 label
For B1, the “survival versus untreated control animals” value ([1]; 37 MBq ^131I-L19-SIP alone, Capan-1 tumour bearing mice) was “did not differ from untreated control animals”, the “tumour growth inhibition compared to untreated control tumours” value ([1]; 37 MBq ^131I-L19-SIP, single dose) was “did not result in tumour growth inhibition” and the median survival ([1]; single dose of 74 MBq ^131I-L19-SIP alone, Capan-1 tumour bearing mice, untreated control 32 days) was 44 days.
